Consider two substances from patent publication US20250051404A1.

In assay [1] the target is integrin αvβ3 expressed on CHO cells (CHO-αvβ3). The assay is described as follows: cell-based or functional assay.
In assay [2] the target is soluble integrin αvβ3.
Assay [3] has as its target human VEGF165 (human) (UniProt P15692). The assay is described as follows: direct binding ELISA, VEGF165 coated, anti-human IgG Fc-HRP detection.

soluble integrin αvβ3, sequence (P06756 31-992, chain 1 of 2): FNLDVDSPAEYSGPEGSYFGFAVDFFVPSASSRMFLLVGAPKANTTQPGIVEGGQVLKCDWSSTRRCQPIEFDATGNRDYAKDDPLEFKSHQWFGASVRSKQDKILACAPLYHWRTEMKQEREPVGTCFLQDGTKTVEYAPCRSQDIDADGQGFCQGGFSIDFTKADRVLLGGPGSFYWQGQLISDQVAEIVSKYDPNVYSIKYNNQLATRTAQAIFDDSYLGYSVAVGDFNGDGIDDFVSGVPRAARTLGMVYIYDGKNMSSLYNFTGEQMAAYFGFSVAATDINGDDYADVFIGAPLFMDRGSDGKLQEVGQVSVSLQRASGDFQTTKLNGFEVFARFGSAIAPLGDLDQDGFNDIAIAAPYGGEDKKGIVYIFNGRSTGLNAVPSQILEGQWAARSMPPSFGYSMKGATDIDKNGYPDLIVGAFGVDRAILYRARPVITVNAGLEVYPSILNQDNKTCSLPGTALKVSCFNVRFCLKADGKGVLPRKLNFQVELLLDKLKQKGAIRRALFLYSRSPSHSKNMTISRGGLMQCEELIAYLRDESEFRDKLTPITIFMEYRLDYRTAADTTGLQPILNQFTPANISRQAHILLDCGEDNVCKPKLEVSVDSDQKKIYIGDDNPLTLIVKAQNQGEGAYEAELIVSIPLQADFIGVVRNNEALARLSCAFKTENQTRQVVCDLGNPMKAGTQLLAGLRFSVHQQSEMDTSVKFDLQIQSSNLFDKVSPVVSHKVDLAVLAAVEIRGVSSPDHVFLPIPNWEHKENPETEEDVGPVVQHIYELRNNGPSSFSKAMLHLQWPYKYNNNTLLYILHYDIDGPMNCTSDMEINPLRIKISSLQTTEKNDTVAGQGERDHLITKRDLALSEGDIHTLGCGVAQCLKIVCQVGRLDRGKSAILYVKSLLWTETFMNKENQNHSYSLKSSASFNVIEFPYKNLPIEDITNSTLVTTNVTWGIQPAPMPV
soluble integrin αvβ3, sequence (P05106 27-718, chain 2 of 2, further chain): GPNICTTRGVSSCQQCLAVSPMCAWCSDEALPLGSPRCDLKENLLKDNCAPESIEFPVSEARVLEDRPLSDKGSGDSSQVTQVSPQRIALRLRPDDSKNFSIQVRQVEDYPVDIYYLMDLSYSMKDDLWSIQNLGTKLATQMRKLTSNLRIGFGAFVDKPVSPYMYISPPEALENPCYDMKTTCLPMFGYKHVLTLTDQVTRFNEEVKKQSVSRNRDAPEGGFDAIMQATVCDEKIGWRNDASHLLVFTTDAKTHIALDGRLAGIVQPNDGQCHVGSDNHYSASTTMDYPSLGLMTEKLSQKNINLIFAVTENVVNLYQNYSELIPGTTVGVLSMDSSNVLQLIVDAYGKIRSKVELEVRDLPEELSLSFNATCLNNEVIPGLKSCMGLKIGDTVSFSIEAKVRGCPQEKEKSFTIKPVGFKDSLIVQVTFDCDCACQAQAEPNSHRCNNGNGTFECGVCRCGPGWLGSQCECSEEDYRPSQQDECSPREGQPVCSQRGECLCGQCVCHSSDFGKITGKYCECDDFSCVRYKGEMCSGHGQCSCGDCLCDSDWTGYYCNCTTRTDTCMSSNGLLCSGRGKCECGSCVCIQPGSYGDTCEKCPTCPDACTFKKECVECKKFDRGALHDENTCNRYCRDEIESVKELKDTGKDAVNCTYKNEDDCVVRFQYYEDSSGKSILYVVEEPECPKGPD

Substance “Positive Control 3 (wild type Rho, SEQ ID NO: 1) (from UniProt P30403 408-475) (ligand)” yielded a αvβ3, IC50 (nM), inhibition of CHO-αvβ3 cell adhesion to fibrinogen in assay [1] of 24.7 nM. Moreover, the IC50 (commonly the concentration that inhibits the measured activity by half) in assay [2] was 2.6 to 3.2 nM.
“Positive Control 2 (aflibercept) (Fc fusion)”: the EC50 (usually the concentration that produces a half-maximal response) in assay [3] fell in the range of 0.088 to 0.195 nM.
